Data on 5 sequences can be found in the supplement of paper PMC5998384.

Series [1] relates to HeLa Kyoto. Description: thermal stability score vs G1/S (z-score of summed log2 fold changes over temperatures); higher = more thermally stable than in G1/S.
For series [2], the system named is HeLa Kyoto. The series can be described thus: solubility in G1/S (NP-40 vs SDS abundance) (log2 ratio); higher = more soluble. Conditions: cell cycle stage: G1/S.
In series [3] the test system is HeLa Kyoto. The series can be described thus: solubility change mitosis vs G1/S (difference of NP-40 vs SDS log2 ratios) (log2 ratio difference); higher = more soluble in mitosis.
In series [4] the test system is HeLa Kyoto. The series can be described thus: melting temperature (median over replicates), in situ; higher = more thermally stable.
The mark [5] stands for this setting: cell cycle stage: early G1 (4.5 h after nocodazole release).
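Throughout, for melting temperature (median over replicates), in situ: HeLa Kyoto cells synchronized by double thymidine or nocodazole block, proteins quantified by TMT10plex mass spectrometry, three independent biological replicates.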
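Throughout, for solubility change mitosis vs G1/S (difference of NP-40 vs SDS log2 ratios): synchronized HeLa Kyoto cells (double thymidine block for G1/S, nocodazole release for mitosis), protein amounts in NP-40 versus SDS lysates quantified by mass spectrometry, three biological replicates.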
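Throughout, for solubility in G1/S (NP-40 vs SDS abundance): HeLa Kyoto cells arrested at G1/S by double thymidine block, proteins quantified by TMT10plex mass spectrometry in mild NP-40 versus SDS extracts, three biological replicates.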
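Throughout, for thermal stability score vs G1/S (z-score of summed log2 fold changes over temperatures): synchronized HeLa Kyoto cells, proteins quantified by TMT10plex mass spectrometry, three biological replicates, mitosis taken 0.5 h after nocodazole release, G1/S directly after double thymidine block.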

On to “MLQQVPENINFPAEEEKILEFWTEFNCFQECLKQSKHKPKFTFYDGPPFATGLPHYGHILAGTIKDIVTRYAHQSGFHVDRRFGWDCHGLPVEYEIDKTLGIRGPEDVAKMGITEYNNQCRAIVMRYSAEWKSTVSRLGRWIDFDNDYKTLYPQFMESVWWVFKQLYDKGLVYRGVKVMPFSTACNTPLSNFESHQNYKDVQDPSVFVTFPLEEDETVSLVAWTTTPWTLPSNLAVCVNPEMQYVKIKDVARGRLLILMEARLSALYKLESDYEILERFPGAYLKGKKYRPLFDYFLKCKENGAFTVLVDNYVKEEEGTGVVHQAPYFGAEDYRVCMDFNIIRKDSLPVCPVDASGCFTTEVTDFAGQYVKDADKSIIRTLKEQGRLLVATTFTHSYPFCWRSDTPLIYKAVPSWFVRVENMVDQLLRNNDLCYWVPELVREKRFGNWLKDARDWTISRNRYWGTPIPLWVSDDFEEVVCIGSVAELEELSGAKISDLHRESVDHLTIPSRCGKGSLHRISEVFDCWFESGSMPYAQVHYPFENKREFEDAFPADFIAEGIDQTRGWFYTLLVLATALFGQPPFKNVIVNGLVLASDGQKMSKRKKNYPDPVSIIQKYGADALRLYLINSPVVRAENLRFKEEGVRDVLKDVLLPWYNAYRFLIQNVLRLQKEEEIEFLYNENTVRESPNITDRWILSFMQSLIGFFETEMAAYRLYTVVPRLVKFVDILTNWYVRMNRRRLKGENGMEDCVMALETLFSVLLSLCRLMAPYTPFLTELMYQNLKVLIDPVSVQDKDTLSIHYLMLPRVREELIDKKTESAVSQMQSVIELGRVIRDRKTIPIKYPLKEIVVIHQDPEALKDIKSLEKYIIEELNVRKVTLSTDKNKYGIRLRAEPDHMVLGKRLKGAFKAVMTSIKQLSSEELEQFQKTGTIVVEGHELHDEDIRLMYTFDQATGGTAQFEAHSDAQALVLLDVTPDQSMVDEGMAREVINRIQKLRKKCNLVPTDEITVYYKAKSEGTYLNSVIESHTEFIFTTIKAPLKPYPVSPSDKVLIQEKTQLKGSELEITLTRGSSLPGPACAYVNLNICANGSEQGGVLLLENPKGDNRLDLLKLKSVVTSIFGVKNTELAVFHDETEIQNQTDLLSLSGKTLCVTAGSAPSLINSSSTLLCQYINLQLLNAKPQECLMGTVGTLLLENPLGQNGLTHQGLLYEAAKVFGLRSRKLKLFLNETQTQEITEDIPVKTLNMKTVYVSVLPTTADF [IARS]”, for which the thermal stability score was 0.0148 in series [1] (setting [5]) and 2.81 in series [1] (cell cycle stage: mitosis). Besides, the “solubility in G1/S (log2)” value in series [2] is -0.225. Moreover, the “solubility change mitosis (log2)” value in series [3] was -0.178. Further, the melting temperature in series [4] (cell cycle stage: G1/S) was found to be 48.8 °C; in series [4] (cell cycle stage: mitosis), 49.2 °C.

Regarding “MEMFTFLLTCIFLPLLRGHSLFTCEPITVPRCMKMAYNMTFFPNLMGHYDQSIAAVEMEHFLPLANLECSPNIETFLCKAFVPTCIEQIHVVPPCRKLCEKVYSDCKKLIDTFGIRWPEELECDRLQYCDETVPVTFDPHTEFLGPQKKTEQVQRDIGFWCPRHLKTSGGQGYKFLGIDQCAPPCPNMYFKSDELEFAKSFIGTVSIFCLCATLFTFLTFLIDVRRFRYPERPIIYYSVCYSIVSLMYFIGFLLGDSTACNKADEKLELGDTVVLGSQNKACTVLFMLLYFFTMAGTVWWVILTITWFLAAGRKWSCEAIEQKAVWFHAVAWGTPGFLTVMLLAMNKVEGDNISGVCFVGLYDLDASRYFVLLPLCLCVFVGLSLLLAGIISLNHVRQVIQHDGRNQEKLKKFMIRIGVFSGLYLVPLVTLLGCYVYEQVNRITWEITWVSDHCRQYHIPCPYQAKAKARPELALFMIKYLMTLIVGISAVFWVGSKKTCTEWAGFFKRNRKRDPISESRRVLQESCEFFLKHNSKVKHKKKHYKPSSHKLKVISKSMGTSTGATANHGTSAVAITSHDYLGQETLTEIQTSPETSMREVKADGASTPRLREQDCGEPASPAASISRLSGEQVDGKGQAGSVSESARSEGRISPKSDITDTGLAQSNNLQVPSSSEPSSLKGSTSLLVHPVSGVRKEQGGGCHSDT [FZD6]”, the thermal stability score in series [1] (setting [5]) is -1.37; in series [1] (cell cycle stage: mitosis), -2.82. Moreover, in series [2], the “solubility in G1/S (log2)” value was -0.0341. Besides, in series [3], the “solubility change mitosis (log2)” value turned out to be 0.0773. The melting temperature stood at 54.7 °C in series [4] (cell cycle stage: G1/S) and 55.6 °C in series [4] (cell cycle stage: mitosis).

Turning to “MATSVLCCLRCCRDGGTGHIPLKEMPAVQLDTQHMGTDVVIVKNGRRICGTGGCLASAPLHQNKSYFEFKIQSTGIWGIGVATQKVNLNQIPLGRDMHSLVMRNDGALYHNNEEKNRLPANSLPQEGDVVGITYDHVELNVYLNGKNMHCPASGIRGTVYPVVYVDDSAILDCQFSEFYHTPPPGFEKILFEQQIF [SPRYD7]”, the thermal stability score was 0.0977 in series [1] (setting [5]) and -1.67 in series [1] (cell cycle stage: mitosis). Moreover, the “solubility in G1/S (log2)” value in series [2] stood at 0.156. In addition, the “solubility change mitosis (log2)” value in series [3] was -0.19. Moreover, the melting temperature in series [4] (cell cycle stage: G1/S) worked out at 52.6 °C; in series [4] (cell cycle stage: mitosis) it was 54.2 °C.

For “MSDAAVDTSSEITTKDLKEKKEVVEEAENGRDAPANGNAENEENGEQEADNEVDEEEEEGGEEEEEEEEGDGEEEDGDEDEEAESATGKRAAEDDEDDDVDTKKQKTDEDD [PTMA]”, the thermal stability score was -0.717 in series [1] (setting [5]) and -1.69 in series [1] (cell cycle stage: mitosis). The “solubility in G1/S (log2)” value in series [2] is -1.5. Further, in series [3], the “solubility change mitosis (log2)” value is -0.00535. The results for the melting temperature in series [4] (cell cycle stage: G1/S) and in series [4] (cell cycle stage: mitosis) were 54.9 °C and 55.1 °C, respectively.

On to “MALRPGAGSGGGGAAGAGAGSAGGGGFMFPVAGGIRPPQAGLMPMQQQGFPMVSVMQPNMQGIMGMNYSSQMSQGPIAMQAGIPMGPMPAAGMPYLGQAPFLGMRPPGPQYTPDMQKQFAEEQQKRFEQQQKLLEEERKRRQFEEQKQKLRLLSSVKPKTGEKSRDDALEAIKGNLDGFSRDAKMHPTPASHPKKPGPSLEEKFLVSCDISTSGQEQIKLNTSEVGHKALGPGSSKKYPSLMASNGVAVDGCVSGTTTAEAENTSDQNLSIEESGVGVFPSQDPAQPRMPPWIYNESLVPDAYKKILETTMTPTGIDTAKLYPILMSSGLPRETLGQIWALANRTTPGKLTKEELYTVLAMIAVTQRGVPAMSPDALNQFPAAPIPTLSGFSMTLPTPVSQPTVIPSGPAGSMPLSLGQPVMGINLVGPVGGAAAQASSGFIPTYPANQVVKPEEDDFQDFQDASKSGSLDDSFSDFQELPASSKTSNSQHGNSAPSLLMPLPGTKALPSMDKYAVFKGIAADKSSENTVPPGDPGDKYSAFRELEQTAENKPLGESFAEFRSAGTDDGFTDFKTADSVSPLEPPTKDKTFPPSFPSGTIQQKQQTQVKNPLNLADLDMFSSVNCSSEKPLSFSAVFSTSKSVSTPQSTGSAATMTALAATKTSSLADDFGEFSLFGEYSGLAPVGEQDDFADFMAFSNSSISSEQKPDDKYDALKEEASPVPLTSNVGSTVKGGQNSTAASTKYDVFRQLSLEGSGLGVEDLKDNTPSGKSDDDFADFHSSKFSSINSDKSLGEKAVAFRHTKEDSASVKSLDLPSIGGSSVGKEDSEDALSVQFDMKLADVGGDLKHVMSDSSLDLPTVSGQHPPAADIEDLKYAAFGSYSSNFAVSTLTSYDWSDRDDATQGRKLSPFVLSAGSGSPSATSILQKKETSFGSSENITMTSLSKVTTFVSEDALPETTFPALASFKDTIPQTSEQKEYENRDYKDFTKQDLPTAERSQEATCPSPASSGASQETPNECSDDFGEFQSEKPKISKFDFLVATSQSKMKSSEEMIKSELATFDLSVQGSHKRSLSLGDKEISRSSPSPALEQPFRDRSNTLNEKPALPVIRDKYKDLTGEVEENERYAYEWQRCLGSALNVIKKANDTLNGISSSSVCTEVIQSAQGMEYLLGVVEVYRVTKRVELGIKATAVCSEKLQQLLKDIDKVWNNLIGFMSLATLTPDENSLDFSSCMLRPGIKNAQELACGVCLLNVDSRSRKEEKPAEEHPKKAFNSETDSFKLAYGGHQYHASCANFWINCVEPKPPGLVLPDLL [SYNRG]”, for which the thermal stability score was 0.188 in series [1] (setting [5]) and 1.39 in series [1] (cell cycle stage: mitosis). In series [2], the “solubility in G1/S (log2)” value was found to be 0.0486. Besides, the “solubility change mitosis (log2)” value in series [3] is -0.164. In addition, the figures for the melting temperature in series [4] (cell cycle stage: G1/S) and in series [4] (cell cycle stage: mitosis) were 49.9 °C and 49.7 °C, respectively.
